Laboratory results as given in patent US20190300610A1 (published 2019).

Columns and labels:
[1] = biological target: T1, Human VISTA expressed on cells (human, UniProt Q9H7M9 33-311); assay: flow cytometry, HEK293T cells transfected with human VISTA vs wildtype, 20 µg/ml antibody (FIGS. 1C, 2, 24)
T1 construct: also called HEK293 VISTA O/E; HEK293T cells transfected with vector encoding human VISTA
Protocol: The cells were washed thrice with FACS buffer (PBS with 5 mM EDTA and 0.5% BSA) and resuspended in FITC-conjugated anti-FC antibody (Invitrogen, USA) for 40 min at 2-8° C. Cells were washed again and resuspended in 200 μL of FACS flow buffer (PBS with 5 mM EDTA) for flow cytometric analysis using MACSQuant 10 (Miltenyi Biotec, Germany). After acquisition, all raw data were analyzed using Flowlogic software. Cells were gated using forward and side scatter profile and Median of Fluorescence Intensity (MFI) value was determined for native and overexpressing cell populations.

[2] = biological target: T2, His-tagged human VISTA (human, UniProt Q9H7M9 33-194); assay: BLI (Octet QK384), His-tagged VISTA captured on anti-Penta-HIS tips, antibody as analyte, global one site fit
T2 construct: also called human VISTA-His recombinant protein; VISTA/human His-tagged fusion protein (Sinobiological Inc); not shown: His tag

[3] = biological target: T3, His-tagged cynomolgus macaque VISTA (cynomolgus macaque, UniProt A0A7N9IB00 33-194); assay: as above
T3 construct: also called cynomolgus monkey VISTA; not shown: His tag

[4] = biological target: T4, Histidine-tagged mFcγRIIb (mouse, UniProt P08101 30-207); assay: BLI (Octet QK384), His-tagged receptor on anti-Penta-HIS biosensor, antibody as analyte, pH 7.2
T4 construct: also called mouse FcγRIIb; mFcγRIIb (50030-M08H, Sino Biological); not shown: histidine tag
T4 sequence (looked up): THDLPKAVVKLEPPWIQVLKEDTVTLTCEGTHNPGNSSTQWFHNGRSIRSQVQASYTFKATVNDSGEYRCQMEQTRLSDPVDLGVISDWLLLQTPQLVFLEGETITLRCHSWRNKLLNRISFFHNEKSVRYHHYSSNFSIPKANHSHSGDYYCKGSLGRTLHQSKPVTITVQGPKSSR

[5] = biological target: T5, Histidine-tagged mFcγRIV (mouse, UniProt A0A0B4J1G0 21-203); assay: as above
T5 construct: also called mouse FcγRIV; mFcγRIV (50036-M08H, Sino Biological)
T5 sequence: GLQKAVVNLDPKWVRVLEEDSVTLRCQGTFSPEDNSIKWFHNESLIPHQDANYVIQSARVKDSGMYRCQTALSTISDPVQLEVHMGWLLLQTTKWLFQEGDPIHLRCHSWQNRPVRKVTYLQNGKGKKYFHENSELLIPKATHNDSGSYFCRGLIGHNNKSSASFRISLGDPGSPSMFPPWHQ

[6] = biological target: T6, Histidine-tagged mFcγRIII (mouse, UniProt P08508 31-215); assay: as above
T6 construct: also called mouse FcγRIII; mFcγRIII (50326-M08H, Sino Biological); not shown: histidine tag
T6 sequence (looked up): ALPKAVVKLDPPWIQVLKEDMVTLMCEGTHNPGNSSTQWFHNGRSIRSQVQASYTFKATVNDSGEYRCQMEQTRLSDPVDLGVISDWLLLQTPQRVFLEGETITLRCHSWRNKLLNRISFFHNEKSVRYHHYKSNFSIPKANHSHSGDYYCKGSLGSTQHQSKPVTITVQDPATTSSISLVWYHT

B1: anti-VISTA clone 9M2-C12 IgG1 (antibody, V domains shown)
VH: QVQLQQSGAELVKPGASVRLSCKASGYTFTSYWMHWVRQRPGLGLEWIGEIDPSDSYTNCNQRFKGKATLTVDKSSSTAYTQLSSLTSEDSAVYYCARWAYGPYAMDYWGQGTSVTVSS
VL: DIVMTQTPLSLPVSLGDQASISCRSSQSLVHSNGNTYLHWYLQKPGQSPKLLIYKVSNRFSGVPDRFSGSGSGTDFTLKISRVEAEDLGVYFCSQSTHVPWTFGGGTKLEIKR
- binding result [1]: binds

B2: anti-VISTA clone 4M2-C12 IgG1 (antibody)
heavy: not shown
light: DIVITQTPAILSTSPGEKVTMTCRASSSVGYIHWYQQKPGSSPKPWIYATSNLASGVPARFSGSGSGTSNSLTITRVEAEDAATYYCQQWSSYPPITFGGGTKLEVKRTVAAPSVFIFPPSDEQLKSGTASVVCLLNNFYPREAKVQWKVDNALQSGNSQESVTEQDSKDSTYSLSSTLTLSKADYEKHKVYACEVTHQGLSSPVTKSFNRGEC
notes: Human-mouse chimeric IgG1/kappa; also called V4; clone V4
- Kd [2]: < 1000 nM
- Kd [3]: < 1000 nM

B3: 4M2-C12 mIgG2a (antibody)
heavy: EVKLVESGPGLVKPSQSLSLTCTVTGYSITSDYAWNWIRQFPGNKLEWMGYITYSGNISYNPSLRSRISITRDTSKNQFFLQLNSVTPEDTATYSCARSLYYPWYFDVWGAGTTVTVSSAKTTAPSVYPLAPVCGDTTGSSVTLGCLVKGYFPEPVTLTWNSGSLSSGVHTFPAVLQSDLYTLSSSVTVTSSTWPSQSITCNVAHPASSTKVDKKIEPRGPTIKPCPPCKCPAPNLLGGPSVFIFPPKIKDVLMISLSPIVTCVVVDVSEDDPDVQISWFVNNVEVHTAQTQTHREDYNSTLRVVSALPIQHQDWMSGKEFKCKVNNKDLPAPIERTISKPKGSVRAPQVYVLPPPEEEMTKKQVTLTCMVTDFMPEDIYVEWTNNGKTELNYKNTEPVLDSDGSYFMYSKLRVEKKNWVERNSYSCSVVHEGLHNHHTTKSFSRTPGK
light: DIVITQTPAILSTSPGEKVTMTCRASSSVGYIHWYQQKPGSSPKPWIYATSNLASGVPARFSGSGSGTSNSLTITRVEAEDAATYYCQQWSSYPPITFGGGTKLEVKRADAAPTVSIFPPSSEQLTSGGASVVCFLNNFYPKDINVKWKIDGSERQNGVLNSWTDQDSKDSTYSMSSTLTLTKDEYERHNSYTCEATHKTSTSPIVKSFNRNEC
notes: Mouse IgG2a format, produced in CHO cells; also called 4M2-C12 IgG2a
- binding result [4]: binds
- binding result [5]: binds
- binding result [6]: binds
